Results on 40 molecules are retold here after publication PMC9170038.

The data set concerns the target MS2 coat protein, dlFG mutant (Escherichia phage MS2, UniProt P03612, del68-81insG). The data set is described as follows: 4 mM Mg2+; no ligand; RNA-MaP array; 100 mM Tris-HCl pH 7.5, 80 mM KCl, 4 mM MgCl2, 0.1 mg/mL BSA, 1 mM DTT, 0.01 mg/mL yeast tRNA, 0.01% Tween-20; protein 1.5 nM to 3 uM; 37 C (Table S3). The settings on record: chain copies: 2; label: tethered by stalled RNA polymerase.

B1: Eterna 5978372 (Brourd's mod of Exclusion 4) (ssRNA)
RNA: GCGUCUCCUGUCAGGAUAUGCACCGGCUCGCCGGCGUAGAAGGGACAUGAGGAUCACCCAUGUGGUCUACACUU
Consider B1, for which the Kd was 84.3 nM.

B2: Eterna 7653809 (Same State - Theophylline B) (ssRNA)
RNA: UGUAUGUGAUUUGAUACCAGACCAGCUGGUGGUACUUGAGGAACACCCAAGUAGGUUUGGGUCCCUUGGCAGCAAAUCGCAUACU
As to B2, the Kd turned out to be 177 nM.

B3: Eterna 6395528 (Inverted Small Loop Exclusion NG 1) (ssRNA)
RNA: ACAUGGUAGUAGAAGGGUAUUACUUUAGAUACAACCAUUUGUUUAGUUUAUACAGGAUAUGCUUACAUGAGGAUCACCCAUGUU
B3 showed a Kd of 9.28 nM.

B4: Eterna 6451659 (Inverted Exclusion NG 1) (ssRNA)
RNA: GCGUGGUUCUAGAAGGUGCUAGCGAUAAGCUAGCAAGGAUAUAGACAUGAGGAUCACCCAUGUCUUAGUGAAAUGGACACACGC
Molecule B4 had a Kd of 4.84 nM.

B5: Eterna 12668 (Exclusion 3) (ssRNA)
RNA: UAAAAGCUAGGAUAUACAUGAGGAUCACCCAUGUCACGGGUCCACUCAUCCUAUACGUGUAGAAGGAGCGACCC
B5 returned a Kd of 17.4 nM.

B6: Eterna 7707528 (Exclusion - Tryptophan A) (ssRNA)
RNA: GGGAUGUAGUGAUGUUAUAUUGGAUGUAGACGAGGACCGGUACGGCCGCCACUCGUGAUGGCUGCUAGCACGUUUCGAUGUUUGC
Take B6: the Kd is above 3000 nM.

B7: Eterna 7692390 (Exclusion - Arginine A) (ssRNA)
RNA: AGUAGGAAACUACAAUCCUCUCUUACUGAAGGAGCGCGUGAAAACGCAGGUAGGUCGCAGGAUUGGAGAGUGAUGUUCUCCUUAA
Turning to B7, the Kd was above 3000 nM.

B8: Eterna 11866 (Sensor v3, turn-off variant 2) (ssRNA)
RNA: CUUAGCCUAAAAUCACGCAAGCUUUCUGCUUGUCUUAAGACAUGAGGAUCACCCAUGUCCGGGCUGAACUUAUGGAA
B8: the equilibrium dissociation constant (Kd) is 18.5 nM.

B9: Eterna 7662739 (Exclusion - Arginine A) (ssRNA)
RNA: CGCGGGCCACAUGAGGAUCACCCAUGUGAAGGAGCGGCGAAUAAGCCAGGUAGGUCGCGCAUGAAUAAAUCAUGUAGGUGGCGAA
As for B9, the Kd was 18.3 nM.

B10: Eterna 7709739 (Same State - Tryptophan B) (ssRNA)
RNA: UAUAUAGUGACGGCCGCCACUAUAUUAAUGUUUAGGUUAGAGUGAUGUUUUGAUUAAUAUUUUUAUAGGACCGGGUUAUAUGUUA
The molecule B10 returned an equilibrium dissociation constant (Kd) above 3000 nM.

B11: Eterna 7734981 (Same State - FMN A) (ssRNA)
RNA: UGUGAGCUGUCGACAAAAGUCGACUAAAGCGAGGAUAUGACGAAAGUCAGAAGGCGUCAAUAAUGGAGUGAUGUUCCUGCUCACU
B11 gave a Kd above 3000 nM.

B12: Eterna 7612197 (Same State - Arginine B) (ssRNA)
RNA: ACGUAAAGCAGAAGGAGCGUCUUCAAUUUACAUGAGGAUCACCCAUGUUUUGUGAUCAUAUGACAGGUAGGUCGCUGAAGUACGA
Turning to B12, the Kd amounted to 127 nM.

B13: Eterna 6461477 (Inverted Same State NG 1) (ssRNA)
RNA: GCUGCAUGUGAGAAGGCGAUCAUGAAACAUGAUCGAGGAUAUCAUGUAAACAUGAGGAUCACCCAUGUAUGGGUAUUAAGCAGC
Regarding B13, the Kd is 272 nM.

B14: Eterna 9406 (Exclusion 4) (ssRNA)
RNA: UUCAUGUGAGGAUAUGUGAUCUGCUUUCUGUUUAGAUGAUCACAGAAGGCACAUGAGGAUCACCCAUGUAGAUC
Turning to B14, the Kd was found to be 141 nM.

B15: Eterna 15533 (Exclusion 1) (ssRNA)
RNA: UCUCGACAUGAGGAUCACCCAUGUCAGGAUAUUGUGUUUGAGGUUUUUUACCUUUUGACAAGAAGGGAUGUGUG
The molecule B15 gave a dissociation constant (Kd) of 29.8 nM.

B16: Eterna 6373941 (Exclusion NG 3) (ssRNA)
RNA: GUCACGGUUAAUUCCGUGACGCGCAAACCUUGAGGAUCACCCAAGGAUAUCGACGUCAAUGACGUCGAGAAGGUGGUUGAGCGC
As for B16, binding was characterised by a dissociation constant (Kd) of 53.8 nM.

B17: Eterna 6381351 (Inverted Exclusion NG 3) (ssRNA)
RNA: CGAUAUAUGAAGGGCGAAAGCCCACAUGAGGAUCACCCAUGUAGAAGGCGGGCCGCAACGCGGCCCGAGGAUAUAUAAUAUACA
Consider B17, for which binding was characterised by a dissociation constant (Kd) of 7.35 nM.

B18: Eterna 12641 (Exclusion 3) (ssRNA)
RNA: AAUAGCUAAGGAUAUACAUGAGGAUCACCCAUGUAAAACACUACUUGGAACCGCCUCGGUAGAAGGUAGAAAAU
For B18, binding was put at a Kd of 20.6 nM.

B19: Eterna 7652698 (Same State - Arginine A) (ssRNA)
RNA: CGGUCGGUCGGCCGGUGAUUAUGGGAUGAAGGAGCGUGGGAAGCUACAGGUAGGUCGCAUCCGAAACAUCACGAUCACGGAUGUU
B19 showed a Kd of 74.9 nM.

B20: Eterna 6145156 (Exclusion NG 1) (ssRNA)
RNA: UUAAAUCAUGUAGGAUAUGCAUGGCGAAGCUACGCAGAAGGACAUGAGGAUCACCCAUGUUAUAGCUACCGAAUAAGGUGGCAA
In the case of B20, the Kd stood at 91.1 nM.

B21: Eterna 6443967 (Same State NG 2) (ssRNA)
RNA: CUAUAGAUAUGAGGAUAUGUAUAUCCAACAUGAGGAUCACCCAUGUUGAUGAUCACGUAUGUAAAGCAGAAGGCAUAUCUAUAG
The molecule B21 gave a Kd of 8.38 nM.

B22: Eterna 6461519 (Inverted Same State NG 1) (ssRNA)
RNA: GUGCCUAACUAGAAGGCCCAAUGCAAAGCAUCGGGAGGAUAUGGGUUUAAUAAAUAAACAUGAGGAUCACCCAUGUGGCACAAA
In turn, B22 came in with a Kd of 46 nM.

B23: Eterna 7670795 (Exclusion - Tryptophan B) (ssRNA)
RNA: GGAUAGGACACGGCCGCCACUACCUAGGAUACUAGCAACAUUUGGGUACGUGAGGAUCACCCACGUAGGACCGGGUGUCCUAUCG
For the molecule B23, the affinity, expressed as Kd, was 12.4 nM.

B24: Eterna 12242 (Exclusion 3) (ssRNA)
RNA: GACUAGGCAGGAUAUACAUGAGGAUCACCCAUGUGUCUGCGAUAGGCACGUGAUUACUGUAGAAGGGCCUUGAC
In turn, B24 returned a Kd of 330 nM.

B25: Eterna 1752 (Same State - Tryptophan B) (ssRNA)
RNA: CUUUUACAGUCGGCCGCCACUGACAGCACUUCAAAGACAGUAUAAGGGUAGUGAUGUUACUUUAUCAGGACCGGGACUACCUAAC
As for B25, the equilibrium dissociation constant (Kd) was above 3000 nM.

B26: Eterna 7732393 (Same State - FMN B) (ssRNA)
RNA: AUUUUUUUGUCAGGAUAUUAGUGUGGGUUUGGUUUGUUAGUGAUGUUGAUAUUUGUUUUAUGUAUUUAAGAAGGGAUUUAGCGGU
In the case of B26, the Kd was above 3000 nM.

B27: Eterna 6033767 (Exclusion 3) (ssRNA)
RNA: AGGGUAGUAGGAUAUACAUGAGGAUCACCCAUGUUUCCAUUACGUGACUGGUCCUAGUGUAGAAGGGCUAGCAC
B27 registered a Kd of 17 nM.

B28: Eterna 6453269 (Small Loop Same State NG 3) (ssRNA)
RNA: CAGCGAUAGCUAAAGUAUCUAUCAGAGGAUAUUCAUGAAACAUGAGGAUCACCCAUGUGAAACUGGGAGAAGGCUGAUAGAUAG
On to B28, for which the Kd was determined as 14.2 nM.

B29: Eterna 6406790 (Exclusion NG 3) (ssRNA)
RNA: GUACUGAAGCUUUGCUUUAGUCGUACAUGAGGAUCACCCAUGUAGGAUAUGGUAGGCUUUGCUUACUAGAAGGAUAGAGUGAUU
In the case of B29, binding was put at a Kd of 54.4 nM.

B30: Eterna 6080103 (Exclusion 1) (ssRNA)
RNA: CCCGGACAUGAGGAUCACCCAUGUUAGGAUAUCUAGAGGAUCUAAACCGAAUAGAUCCAGAGAAGGGAUGUGGG
For B30, the Kd worked out at 34.3 nM.

B31: Eterna 6453699 (Inverted Same State NG 2) (ssRNA)
RNA: AGUUUGUUUGAGAAGGUGAAGUGGAAACAUGAGGAUCACCCAUGUAUUAGGAAGCCUGGUUUUGUCAAGGAUAUCGGGUAAACA
In turn, B31 returned a Kd of 15.2 nM.

B32: Eterna 6083193 (Exclusion 6) (ssRNA)
RNA: CCAAGUUCGUAGGAUAUAGAUGCCUUAGGGCAAUUAGAAGGAUGGACAUGAGGAUCACCCAUGUCGGAUUCUGU
Turning to B32, binding was characterised by a dissociation constant (Kd) of 15.8 nM.

B33: Eterna 6128104 (Same State NG 3) (ssRNA)
RNA: GCUCGAUGAGCUGUCUACAUGAGGAUCACCCAUGUAGAUGGGCAGGAUAUUUACGUGCUUUAUGUAGAGAAGGGCCCAUCGAGC
As to B33, the Kd amounted to 191 nM.

B34: Eterna 6450941 (Small Loop Exclusion NG 3) (ssRNA)
RNA: UGGACCGAGCUAUCGGUUGACUGGGAGGAUAUGACAUGAGGAUCACCCAUGUGGGAUCUAAAUUGUCAGAAGGCUCGUUCUGGG
The molecule B34 displayed a Kd of 264 nM.

B35: Eterna 7734974 (Same State - Theophylline A) (ssRNA)
RNA: AAAAUAAAUAAAACACGUAACAUGAAGGAUACCAGACAGGAAACUGUCCCUUGGCAGCCUCUACAUGAGGAUCACCCAUGUCGUG
The molecule B35 displayed a Kd of 246 nM.

B36: Eterna 6401867 (Inverted Exclusion NG 1) (ssRNA)
RNA: CCGACGCCUCAGAAGGCACUCGCAUAAUGCGAGUGAGGAUAUGAGGAUCACCCAUAUCAACGUCGGAGUCACCGAAACGGUGAC
With B36, the dissociation constant Kd was determined as 11.1 nM.

B37: Eterna 5862108 (Exclusion NG 1) (ssRNA)
RNA: UCACGGGAUUGAGGAUAUAUAUUAAUUUUUUUUAUAGAAGGCAAAAUGUUAGAUUAUUCACUAUACAUGAGGAUCACCCAUGUU
Molecule B37 had an equilibrium dissociation constant (Kd) of 25.5 nM.

B38: Eterna 6430560 (Small Loop Same State NG 3) (ssRNA)
RNA: ACUUAAAUACCCAAAAGUCGGGCGGAGGAUAUGGAGCUUCCACCACAUGAGGAUCACCCAUGUCUUCAGAAGGCCGCCCUUGGA
Take B38: the Kd came to 100 nM.

B39: Eterna 7697396 (Exclusion - Arginine B) (ssRNA)
RNA: UGAUAGGACAGAAGGAGCGGGCUAGUCAAAGACUAGCAAACGUUAAUAACAGGAGUGAUGUUCCAGGUAGGUCGCUGUCCUAUCU
In turn, B39 displayed a Kd above 3000 nM.

B40: Eterna 6124182 (Same State NG 2) (ssRNA)
RNA: GUAGCAUGAUUAGGAUAUUCAGCGAAUAGAUUGACAUGAGGAUCACCCAUGUGGCGAAAGCCGAGGGAGAAGGGAUGAUGCUAC
Turning to B40, the Kd turned out to be 165 nM.
